# B1: c264scTCR/hIL-15RαSu fusion protein (domain or fragment, human, UniProt Q13261 31-95, looked up)
# chain: ITCPPPMSVEHADIWVKSYSLYSRERYICNSGFKRKAGTSSLTECVLNKATNVAHWTTPSLKCIR
# Experiments:
# [1] = molecular target: mouse IL-15 receptor complex (mIL-15Rα-mIL-15Rβ-mγc) on CTLL-2 cells (mouse) (UniProt Q60819)
# [2] = molecular target: hIL-15Rβ-mγc on 32Dβ cells (human | mouse (endogenous in 32D)) (UniProt P14784)
# [3] = molecular target: hIL-15Rβ-mγc on 32Dβ cells (human | mouse (endogenous in 32D)) (UniProt P14784); remark: listed apart in the source
# [4] = molecular target: hIL-15Rα-hIL-15Rβ-hγc complex on TF-1β cells (human (endogenous in TF-1) | human) (UniProt Q13261)
# [5] = molecular target: hIL-15Rα and hγc on TF-1 cells (human (endogenous in TF-1)) (UniProt Q13261); assay: flow cytometry on cells
# [6] = molecular target: hIL-15Rβ-mγc on 32Dβ cells (human | mouse (endogenous in 32D)) (UniProt P14784); remark: listed apart in the source
# recombinant human IL-15 = recombinant human IL-15 (human, UniProt P40933 49-162); assay: ELISA
# [7] = molecular target: c264scTCR/hIL-15 fusion protein (human, UniProt P40933 49-162); assay: ELISA
# Sequence of hIL-15Rβ-mγc on 32Dβ cells (human | mouse (endogenous in 32D)) (P14784 27-551, chain 1 of 2): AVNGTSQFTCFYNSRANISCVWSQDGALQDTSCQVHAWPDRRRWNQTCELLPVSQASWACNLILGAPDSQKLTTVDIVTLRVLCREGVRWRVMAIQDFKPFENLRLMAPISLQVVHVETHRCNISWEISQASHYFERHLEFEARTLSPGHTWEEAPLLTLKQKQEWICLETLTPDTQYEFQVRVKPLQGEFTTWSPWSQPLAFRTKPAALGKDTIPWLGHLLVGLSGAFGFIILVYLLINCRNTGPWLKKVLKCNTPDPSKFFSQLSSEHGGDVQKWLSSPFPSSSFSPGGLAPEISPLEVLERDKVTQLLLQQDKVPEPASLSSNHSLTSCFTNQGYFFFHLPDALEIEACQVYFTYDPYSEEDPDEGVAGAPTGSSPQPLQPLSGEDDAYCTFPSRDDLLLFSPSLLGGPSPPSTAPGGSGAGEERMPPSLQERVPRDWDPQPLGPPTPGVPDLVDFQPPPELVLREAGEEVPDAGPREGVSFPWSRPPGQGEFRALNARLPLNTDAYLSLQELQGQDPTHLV
# Sequence of hIL-15Rβ-mγc on 32Dβ cells (human | mouse (endogenous in 32D)) (P34902 23-369, chain 2 of 2, further chain): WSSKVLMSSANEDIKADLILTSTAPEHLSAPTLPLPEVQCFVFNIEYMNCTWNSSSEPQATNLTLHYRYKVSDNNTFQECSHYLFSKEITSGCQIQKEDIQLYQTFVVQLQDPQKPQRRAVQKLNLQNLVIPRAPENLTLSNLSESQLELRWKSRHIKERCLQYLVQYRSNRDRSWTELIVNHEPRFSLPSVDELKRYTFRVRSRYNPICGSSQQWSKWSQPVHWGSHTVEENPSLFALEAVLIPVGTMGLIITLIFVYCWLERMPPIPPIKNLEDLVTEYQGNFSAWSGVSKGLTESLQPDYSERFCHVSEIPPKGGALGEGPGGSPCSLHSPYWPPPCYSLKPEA
# Sequence of mouse IL-15 receptor complex (mIL-15Rα-mIL-15Rβ-mγc) on CTLL-2 cells (mouse) (Q60819 33-263, chain 1 of 3): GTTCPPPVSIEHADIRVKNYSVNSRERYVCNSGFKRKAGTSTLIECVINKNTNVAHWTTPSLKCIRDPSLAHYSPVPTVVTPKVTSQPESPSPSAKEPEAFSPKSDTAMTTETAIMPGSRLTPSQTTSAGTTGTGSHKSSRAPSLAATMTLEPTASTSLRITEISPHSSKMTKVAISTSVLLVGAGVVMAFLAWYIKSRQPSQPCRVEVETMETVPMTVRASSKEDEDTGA
# Sequence of mouse IL-15 receptor complex (mIL-15Rα-mIL-15Rβ-mγc) on CTLL-2 cells (mouse) (P16297 27-539, chain 2 of 3, further chain): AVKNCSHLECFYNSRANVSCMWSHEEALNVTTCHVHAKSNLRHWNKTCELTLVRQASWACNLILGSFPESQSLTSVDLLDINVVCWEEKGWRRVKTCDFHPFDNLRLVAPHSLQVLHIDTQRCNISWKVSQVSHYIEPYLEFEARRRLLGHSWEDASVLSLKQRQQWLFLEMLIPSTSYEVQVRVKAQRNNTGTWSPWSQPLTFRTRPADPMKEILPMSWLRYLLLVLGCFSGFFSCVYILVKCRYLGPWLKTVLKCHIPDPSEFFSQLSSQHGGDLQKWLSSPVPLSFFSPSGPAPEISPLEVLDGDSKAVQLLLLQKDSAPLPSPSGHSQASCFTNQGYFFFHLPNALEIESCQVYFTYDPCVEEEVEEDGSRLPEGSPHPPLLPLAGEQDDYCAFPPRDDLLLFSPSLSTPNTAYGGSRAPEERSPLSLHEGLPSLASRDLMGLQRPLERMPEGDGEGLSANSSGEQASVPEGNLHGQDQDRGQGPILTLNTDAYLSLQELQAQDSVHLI
# Sequence of mouse IL-15 receptor complex (mIL-15Rα-mIL-15Rβ-mγc) on CTLL-2 cells (mouse) (P34902 23-369, chain 3 of 3, further chain): as the sequence (P34902 23-369, chain 2 of 2, further chain) above
Molecule,"EC50 of CTLL-2 cell proliferation (WST-1, 48 h) [1] [pM]","EC50 of 32Dβ cell proliferation (WST-1, 48 h) [2] [pM]","EC50 on 32Dβ cell proliferation, rhIL-15N72D alone [3] [pM]","EC50 of TF-1β cell proliferation (WST-1, 48 h) [4] [pM]",IC50 [5] [nM],"EC50 of the decrease in apoptosis of 32Dβ cells (Annexin V, 48 h) [6] [pM]",binding result (recombinant human IL-15),binding result [7]
c264scTCR/hIL-15N72D fusion protein (ligand),18.4,79,–,–,–,–,–,–
recombinant human IL-15 N72D mutein (ligand),9.2,39.9,16.2,4.8,0.0175,7.8,–,–
B1,–,–,–,–,–,–,binds,binds

# From publication PMC2814526 (Journal of immunology (Baltimore, Md. : 1950), 2009)
